Measured values published in PMC5223209, “New insights into the GINS complex explain the controversy between existing structural models” (Scientific Reports, 2017).

Biological target: the molecule itself
Assay: negative-stain electron microscopy; gel-filtration fractions of the low and the high MW peak stained and visualised by EM

B1: S. cerevisiae GINS complex (complex)
chain 1: MDINIDDILAELDKETTAVDSTKITQGSSSTTHRDANTIVGSSLDLNDKTQIYVSPQQDFSDLMKSWKNERCSPELLPYPHQLMKRLLNRISMQSQLIENISMGFLDMQNASNANPPMPNESKLPLLCMETELERLKFVIRSYIRCRLSKIDKFSLYLRQLNEDENSLISLTDLLSKDEIKYHDTHSLIWLKLVNDSILKYMPEELQAINDTEGSVNMIDEPDWNKFVFIHVNGPPDGKWNEDPLLQENEFGKPCYTVTIPDLKEEVELTIGSIYVMRYEVIRDLLRDDKVALI
chain 2: MYGDLGNKLVLEAKRTKQLYARSNQDVNLPMYHEDIIRNILKEVSNLRKNTEYLKEQQQLGMLDDKVAKCQYFVTLLCMERNKRCLLAYQRLRTDILDSMAWNNNGLDLMSSITFSQQDTNNLSHQEQEYLKEYCDLITDLKSGDLVDIDLSGSLVPPSDVFIDVRVLKDAGEIQTEYGVFNLIKDSQFFVRQSDVERLIQQGYLQKI
chain 3: MSLPAHLQQTFSPEEIQFIVENEPIKIFPRITTRQKIRGDDRGTGNHTRWQLITTDDKALNNMVAMRSTEVVLWIALLLKQQSKCSIVAPQWLTTKELDRKIQYEKTHPDRFSELPWNWLVLARILFNKAKDDFHDPIHELRGKIQDLREIRQIKVLKGLKYLNESHLQLDNLSLLEINELRPFITEIMDKLREIHTASLTAGTENDEEEFNI
chain 4: MGYYDIDDVLADGTEFPCKFQYDIPGLGYLENNPGRPITKNTKLSLPLWLARILAIVGGDEALVDEEPVPFVELLPPDMFSTKVMNAIKTDPVALDLHSINSHFFSLAIKWIMLFSEKELANVVSELLLQRAQELNHHASSLSIDLNADSTGKNSANTNIATSTFLLKLEEMEKEIYKKSHESYKDTKRWMFKK
notes: Sld5 subunit of the S. cerevisiae GINS complex; Psf1 subunit of the S. cerevisiae GINS complex; Psf2 subunit of the S. cerevisiae GINS complex; Psf3 subunit of the S. cerevisiae GINS complex; details may be in the Supplementary Information; also called yeast GINS complex; copies: + + +
B1: binds.
